We go through two molecules from PMC3377666 (2012).

The target of this test is PCNA (Homo sapiens, UniProt P12004). Nature of the test: enzyme activity assay.
PCNA, sequence (P12004 whole entry): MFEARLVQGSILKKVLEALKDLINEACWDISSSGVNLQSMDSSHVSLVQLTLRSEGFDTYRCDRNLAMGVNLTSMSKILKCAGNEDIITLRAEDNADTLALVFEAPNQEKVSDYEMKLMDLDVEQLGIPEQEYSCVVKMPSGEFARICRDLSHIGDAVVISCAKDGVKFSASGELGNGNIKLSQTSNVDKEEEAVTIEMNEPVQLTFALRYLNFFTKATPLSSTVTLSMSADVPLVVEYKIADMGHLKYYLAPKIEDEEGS

B1: DNA polymerase delta core (protein)
chain 1: MDGKRRPGPGPGVPPKRARGGLWDDDDAPRPSQFEEDLALMEEMEAEHRLQEQEEEELQSVLEGVADGQVPPSAIDPRWLRPTPPALDPQTEPLIFQQLEIDHYVGPAQPVPGGPPPSRGSVPVLRAFGVTDEGFSVCCHIHGFAPYFYTPAPPGFGPEHMGDLQRELNLAISRDSRGGRELTGPAVLAVELCSRESMFGYHGHGPSPFLRITVALPRLVAPARRLLEQGIRVAGLGTPSFAPYEANVDFEIRFMVDTDIVGCNWLELPAGKYALRLKEKATQCQLEADVLWSDVVSHPPEGPWQRIAPLRVLSFDIECAGRKGIFPEPERDPVIQICSLGLRWGEPEPFLRLALTLRPCAPILGAKVQSYEKEEDLLQAWSTFIRIMDPDVITGYNIQNFDLPYLISRAQTLKVQTFPFLGRVAGLCSNIRDSSFQSKQTGRRDTKVVSMVGRVQMDMLQVLLREYKLRSYTLNAVSFHFLGEQKEDVQHSIITDLQNGNDQTRRRLAVYCLKDAYLPLRLLERLMVLVNAVEMARVTGVPLSYLLSRGQQVKVVSQLLRQAMHEGLLMPVVKSEGGEDYTGATVIEPLKGYYDVPIATLDFSSLYPSIMMAHNLCYTTLLRPGTAQKLGLTEDQFIRTPTGDEFVKTSVRKGLLPQILENLLSARKRAKAELAKETDPLRRQVLDGRQLALKVSANSVYGFTGAQVGKLPCLEISQSVTGFGRQMIEKTKQLVESKYTVENGYSTSAKVVYGDTDSVMCRFGVSSVAEAMALGREAADWVSGHFPSPIRLEFEKVYFPYLLISKKRYAGLLFSSRPDAHDRMDCKGLEAVRRDNCPLVANLVTASLRRLLIDRDPEGAVAHAQDVISDLLCNRIDISQLVITKELTRAASDYAGKQAHVELAERMRKRDPGSAPSLGDRVPYVIISAAKGVAAYMKSEDPLFVLEHSLPIDTQYYLEQQLAKPLLRIFEPILGEGRAEAVLLRGDHTRCKTVLTGKVGGLLAFAKRRNCCIGCRTVLSHQGAVCEFCQPRESELYQKEVSHLNALEERFSRLWTQCQRCQGSLHEDVICTSRDCPIFYMRKKVRKDLEDQEQLLRRFGPPGPEAW
chain 2: not shown
Usually Kd stands for the free concentration of one partner at which half of the binding sites on the other are occupied at equilibrium, for simple one-to-one binding. Molecule B1 came in with a Kd of 73 nM.

B2: DNA polymerase delta core+p12 (protein)
chain 1: MDGKRRPGPGPGVPPKRARGGLWDDDDAPRPSQFEEDLALMEEMEAEHRLQEQEEEELQSVLEGVADGQVPPSAIDPRWLRPTPPALDPQTEPLIFQQLEIDHYVGPAQPVPGGPPPSRGSVPVLRAFGVTDEGFSVCCHIHGFAPYFYTPAPPGFGPEHMGDLQRELNLAISRDSRGGRELTGPAVLAVELCSRESMFGYHGHGPSPFLRITVALPRLVAPARRLLEQGIRVAGLGTPSFAPYEANVDFEIRFMVDTDIVGCNWLELPAGKYALRLKEKATQCQLEADVLWSDVVSHPPEGPWQRIAPLRVLSFDIECAGRKGIFPEPERDPVIQICSLGLRWGEPEPFLRLALTLRPCAPILGAKVQSYEKEEDLLQAWSTFIRIMDPDVITGYNIQNFDLPYLISRAQTLKVQTFPFLGRVAGLCSNIRDSSFQSKQTGRRDTKVVSMVGRVQMDMLQVLLREYKLRSYTLNAVSFHFLGEQKEDVQHSIITDLQNGNDQTRRRLAVYCLKDAYLPLRLLERLMVLVNAVEMARVTGVPLSYLLSRGQQVKVVSQLLRQAMHEGLLMPVVKSEGGEDYTGATVIEPLKGYYDVPIATLDFSSLYPSIMMAHNLCYTTLLRPGTAQKLGLTEDQFIRTPTGDEFVKTSVRKGLLPQILENLLSARKRAKAELAKETDPLRRQVLDGRQLALKVSANSVYGFTGAQVGKLPCLEISQSVTGFGRQMIEKTKQLVESKYTVENGYSTSAKVVYGDTDSVMCRFGVSSVAEAMALGREAADWVSGHFPSPIRLEFEKVYFPYLLISKKRYAGLLFSSRPDAHDRMDCKGLEAVRRDNCPLVANLVTASLRRLLIDRDPEGAVAHAQDVISDLLCNRIDISQLVITKELTRAASDYAGKQAHVELAERMRKRDPGSAPSLGDRVPYVIISAAKGVAAYMKSEDPLFVLEHSLPIDTQYYLEQQLAKPLLRIFEPILGEGRAEAVLLRGDHTRCKTVLTGKVGGLLAFAKRRNCCIGCRTVLSHQGAVCEFCQPRESELYQKEVSHLNALEERFSRLWTQCQRCQGSLHEDVICTSRDCPIFYMRKKVRKDLEDQEQLLRRFGPPGPEAW
chain 2: not shown
chain 3: MGRKRLITDSYPVVKRREGPAGHSKGELAPELGEEPQPRDEEEAELELLRQFDLAWQYGPCTGITRLQRWCRAKQMGLEPPPEVWQVLKTHPGDPRFQCSLWHLYPL
As for B2, the Kd amounted to 8.7 nM.
